Experimental data reported in US20230279077A1.

Tests used:
[1] = biological target: HSV-1 glycoprotein D-Fc fusion protein (HSV-1) (UniProt Q69091); assay: phage ELISA, glycoprotein D coated, anti-M13 HRP; well C3
[2] = biological target: HSV-1 glycoprotein D-Fc fusion protein (HSV-1) (UniProt Q69091); assay: SPR single-cycle kinetics, G-Fc captured on anti-human IgG, 25 C, 1:1 Binding fit; item G19, curve Fc=2-1; Table 6 calls the fit to the 1:1 model poor
[3] = biological target: HSV-1 glycoprotein D-Fc fusion protein (HSV-1) (UniProt Q69091); assay: SPR single-cycle kinetics, G-Fc captured on anti-human IgG, 25 C, 1:1 Binding fit; item G19 2, curve Fc=3-1; Table 6 calls the fit to the 1:1 model poor
[4] = biological target: HSV-1 glycoprotein D-Fc fusion protein (HSV-1) (UniProt Q69091); assay: phage ELISA, glycoprotein D coated, anti-M13 HRP; well D6
[5] = biological target: HSV-1 glycoprotein D-Fc fusion protein (HSV-1) (UniProt Q69091); assay: SPR, G-Fc captured on anti-human IgG; low end tied to G44 by Table 6
[6] = biological target: HSV-1 glycoprotein D-Fc fusion protein (HSV-1) (UniProt Q69091); assay: SPR Biacore T200, single cycle kinetics, G-Fc captured on anti-human IgG, 1:1 fit
[7] = biological target: HSV-1 glycoprotein D-Fc fusion protein (HSV-1) (UniProt Q69091); assay: SPR Biacore T200, single cycle kinetics, G-Fc captured on anti-human IgG, 1:1 fit, second run
[8] = biological target: HSV-1 glycoprotein D-Fc fusion protein (HSV-1) (UniProt Q69091); assay: phage ELISA, glycoprotein D coated, anti-M13 HRP; well E10
[9] = biological target: HSV-1 glycoprotein D-Fc fusion protein (HSV-1) (UniProt Q69091); assay: SPR, G-Fc captured on anti-human IgG; high end tied to G77 by Table 6
[10] = biological target: HSV-1 glycoprotein D-Fc fusion protein (HSV-1) (UniProt Q69091); assay: phage ELISA, glycoprotein D coated, anti-M13 HRP; well C6
[11] = biological target: HSV-1 glycoprotein D-Fc fusion protein (HSV-1) (UniProt Q69091); assay: phage ELISA, glycoprotein D coated, anti-M13 HRP; well C5
[12] = biological target: HSV-1 glycoprotein D-Fc fusion protein (HSV-1) (UniProt Q69091); assay: phage ELISA, glycoprotein D coated, anti-M13 HRP; well B4
[13] = biological target: HSV-1 glycoprotein D-Fc fusion protein (HSV-1) (UniProt Q69091); assay: phage ELISA, glycoprotein D coated, anti-M13 HRP; well H3
[14] = biological target: HSV-1 glycoprotein D-Fc fusion protein (HSV-1) (UniProt Q69091); assay: phage ELISA, glycoprotein D coated, anti-M13 HRP; well B2
[15] = biological target: HSV-1 glycoprotein D-Fc fusion protein (HSV-1) (UniProt Q69091); assay: phage ELISA, glycoprotein D coated, anti-M13 HRP; well H5
[16] = biological target: HSV-1 glycoprotein D-Fc fusion protein (HSV-1) (UniProt Q69091); assay: phage ELISA, glycoprotein D coated, anti-M13 HRP; well D3
[17] = biological target: HSV-1 glycoprotein D-Fc fusion protein (HSV-1) (UniProt Q69091); assay: phage ELISA, glycoprotein D coated, anti-M13 HRP; well D5
[18] = biological target: HSV-1 glycoprotein D-Fc fusion protein (HSV-1) (UniProt Q69091); assay: phage ELISA, glycoprotein D coated, anti-M13 HRP; well F3
[19] = biological target: HSV-1 glycoprotein D-Fc fusion protein (HSV-1) (UniProt Q69091); assay: phage ELISA, glycoprotein D coated, anti-M13 HRP; well C8
[20] = biological target: HSV-1 glycoprotein D-Fc fusion protein (HSV-1) (UniProt Q69091); assay: phage ELISA, glycoprotein D coated, anti-M13 HRP; well H1
[21] = biological target: HSV-1 glycoprotein D-Fc fusion protein (HSV-1) (UniProt Q69091); assay: phage ELISA, glycoprotein D coated, anti-M13 HRP; well D2
[22] = biological target: HSV-1 glycoprotein D-Fc fusion protein (HSV-1) (UniProt Q69091); assay: phage ELISA, glycoprotein D coated, anti-M13 HRP; well D1
[23] = biological target: HSV-1 glycoprotein D-Fc fusion protein (HSV-1) (UniProt Q69091); assay: phage ELISA, glycoprotein D coated, anti-M13 HRP; well H8
[24] = biological target: HSV-1 glycoprotein D-Fc fusion protein (HSV-1) (UniProt Q69091); assay: phage ELISA, glycoprotein D coated, anti-M13 HRP; well F1
[25] = biological target: HSV-1 glycoprotein D-Fc fusion protein (HSV-1) (UniProt Q69091); assay: phage ELISA, glycoprotein D coated, anti-M13 HRP; well A6
[26] = biological target: HSV-1 glycoprotein D-Fc fusion protein (HSV-1) (UniProt Q69091); assay: phage ELISA, glycoprotein D coated, anti-M13 HRP; well G11

B1: 3-G-19_M13R (VHH, not shown: small tags and cut ends)
VHH: QVKLEESGGGLVQPGGSLRLSCTASGFSFAFKDYAMSWVRQAPGKGLEWVSTMSGGGGDTKYADSVKGRFTISRDNNKNTVYLQMNSLKPEDTAVYYCAKGWITTNQFADAPRGQGTQVTVSS
In the case of B1, the A450 nm [1] is reported as 1.07, the Kd [2] is reported as 1.73 nM and the koff [2] is reported as 0.000368 s⁻¹. The kon [2] was 213000 M⁻¹ s⁻¹, the Kd [3] was 1.71 nM and the koff [3] was 0.000368 s⁻¹. For the same binder, the kon [3] was 216000 M⁻¹ s⁻¹.

B2: 3-G-44_M13R (VHH, not shown: small tags and cut ends)
VHH: QVQLVESGGGLVQPGGSLRLSCTASGFSFAFKNYAMSWVRQAPGKGLEWVSTMSGGGGDTKYADSVKGRFTISRDNAKNAVYLQMNSLKPEDTAVYYCAKGWITTDQFATAPRGQGTQVTVSS
In the case of B2, the A450 nm [4] is reported as 1.05, the Kd [5] is reported as 0.05 nM and the Kd [6] is reported as 0.051 nM. For the same binder, the koff [6] was 0.000281 s⁻¹, the kon [6] was 5.47e+06 M⁻¹ s⁻¹ and the Kd [7] was 0.048 nM. For the same binder, the koff [7] was 0.000299 s⁻¹ and the kon [7] was 6.2e+06 M⁻¹ s⁻¹.

B3: 3-G-77_M13R (VHH, not shown: small tags and cut ends)
VHH: QVQLVESGGGLVQPGGSLRLSCSASGFSFAFKNYAMSWVRQAPGKGLEWVSTMSGGGGDTKYADSVKGRFTISRDNNKNTVYLQMNSLKPEDTAVYYCAKGWITNNQFAFAPRGQGTQVTVSS
B3 showed an A450 nm [8] of 1.25, a Kd [9] of 0.2 nM and a Kd [6] of 0.183 nM. For the same binder, the koff [6] was 0.00093 s⁻¹, the kon [6] was 5.07e+06 M⁻¹ s⁻¹ and the Kd [7] was 0.18 nM. For the same binder, the koff [7] was 0.00102 s⁻¹ and the kon [7] was 5.67e+06 M⁻¹ s⁻¹.

B4: 3G-43 (VHH)
VHH: AVQLVESGGGLVQPGGSLRLSCSASGFSFAFKNYAMSWVRQAPGKGLEWVSTMSGGGGDTKYADSVKGRFTISRDNNKNTVYLQMNSLKPEDTAVYYCAEGWITNNQFASAPRGQGTQVTVSS
B4 gave an A450 nm [10] of 1.19.

B5: 3G-35 (VHH)
VHH: DVQLVDSGGGLVQPGGSLRLSCSASGFSSAFKNYAMSWVRQAPGKGLEWVSTMSGGGGDTKYADSVKGRFTISRDNNKNTVYLQMNSLKPEDTAVYYCAKGWITNNQFASAPRGQGTQVTVSS
For B5, the A450 nm [11] was 1.13.

B6: 3G-26 (VHH)
VHH: QVQLVESGGGLVQPGGSLRLSCTASGFSFAFKNYAMSWVRQAPGKGLEWVSTMSGGGGDTKYADSVKGRFTISRDNAKNTVYLQMNSLKPEDTAVYYCAEGWITTDQFASAPRGQGTQVTVSS
Binder B6 has an A450 nm [12] of 0.892.

B7: 3G-24 (VHH)
VHH: QVKLEESGGGLAQPGGSLRLSCTASGFSFAFKNYAMSWVRQAPGKGLEWVSTMSGGGGDTKYADSVKGRFTISRDNAKNTVYLQMNSLKPEDTAVYYCAKGWITTDQFASAPRGHGTQVTVSS
Binder B7 has an A450 nm [13] of 1.09.

B8: 3G-10 (VHH)
VHH: QVQLVESGGGLVQPGGSLKLSCASSESIFAFKNYAMSWVRQAPGKGLEWVSTMSGGGGDTKYADSVKGRFTISRDNAKNTVYLQMNSLKPEDTAVYYCAKGWITTDQFASAPRGHGTQVTVSS
With B8 the A450 nm [14] was 1.14.

B9: 3G-40 (VHH)
VHH: QVKLEESGGGLAQPGGSLRLSCAASGFSFSFKNYAMSWVRQAPGKGLEWVSTMSGGGGDIKYADSVKGRFTISRDNAKNTLYLQMNSLKPEDTAVYYCAKGWIATDQFTNTPRGQGTQVTVSS
B9 showed an A450 nm [15] of 1.09.

B10: 3G-20 (VHH)
VHH: EVQLVESGGGLVQPGGSLTLSCAASGFSFSFENYAMSWVRQAPGKGLEWVSTMSGGGGDIKYADSVKGRFTISRDNAKNTLYLQMNNLKPEDSAVYYCAKGWITTNRLTNTPRGQGTQVTVSS
For B10, the A450 nm [16] was 1.18.

B11: 3G-36 (VHH)
VHH: QVQLVESGGGLVQPGGSLTLSCAASGFSFSFENYAMSWVRQAPGKGLEWVSTMSGGGGDIKYADSVKGRFTISRDNAKNTLYLQMNNLKPEDSAVYYCAKGWITTNQFTNTPRGQGTQVTVSS
Work on B11 yielded an A450 nm [17] of 0.934.

B12: 3G-22 (VHH)
VHH: QVQLVESGGGLVQPGGSLTLSCAASGFSFSFENYAMSWVRQAPGKGLEWVSTMSGGGGDIKYADSVKGRFTISRDNAKNTLYLQMNNLKPEDSAVYYCAKGWITTNRFTNIPRGQGTQVTVSS
Work on B12 yielded an A450 nm [18] of 1.14.

B13: 3G-59 (VHH)
VHH: QVQLVESGGGLVQPGGSLTLSCAASGFSFSFENYAMSWVRQAPGKGLEWVSTMSGGGGDIKYADSVKGRFTISRDNAKNTLYLQMNNLKPEDSAVYYCAKGWITANRFTNTPRGQGTQVTVSS
For B13, the A450 nm [19] was 1.16.

B14: 3G-8 (VHH)
VHH: HVQLVESGGGLVQPGGSLTLSCAASGFSFSFENYAMSWVRQAPGKGLEWVSTMSGGGGDIKYADSVKGRFTISRDNAKNTLYLQMNNLKPEDSAVYYCAKGWITTNRFTNTPRGQGTQVTVSS
B14 gave an A450 nm [20] of 0.933.

B15: 3G-12 (VHH)
VHH: DVQLVESGGGLVQPGGSLRLSCAASGFSFSFKNYAMTWVRQAPGKGLEWVSTMSGGGDETKYADSVKGRFTISRDNTKNTLYLQMNSLKPEDTAVYYCAKGWITTDRFTNTPRGQGTQVTVSS
B15 gave an A450 nm [21] of 1.01.

B16: 3G-4 (VHH)
VHH: QVKLEESGGGLVQPGGSLRLSCAASGFSFSFKNYAMSWVRQAPGKGLEWVSTMSGGGDETKYADSVKGRFTISRDNTKNTLYLQMNSLKPEDTAVYYCAKGWITTDRFTNTPRGQGTQVTVSS
Binder B16 has an A450 nm [22] of 1.09.

B17: 3G-64 (VHH)
VHH: QVQLVESGGGLVQPGGSLRLSCAASGFSFSFKNYAMSWVRQAPGKGLEWVSTMSGSGGDTKYADSVKGRFTISRDNAKNTLYLQMNSLKPEDTAVYYCAKGWITTDRFTDAPRGQGTQVTVSS
Work on B17 yielded an A450 nm [23] of 0.985.

B18: 3G-6 (VHH)
VHH: QVQLVESGGGLVQPGGSLRLSCTASGFSFSFKNYAMSWVRQAPGKGLEWVSTMSGGGGDTKYADSVKGRFTISRDNAKNTLYLQMNSLKPEDTAVYYCAKGWITTDRFTDTPRGQGTQVTVSS
B18 was tested, and the A450 nm [24] was 0.951.

B19: 3-G-41_M13R (VHH, not shown: small tags and cut ends)
VHH: QVQLVESGGGLVQPGGSLRLSCAASGFSFSFKNYAMSWVRQAPGKGLEWVSTMSGGGGDIKYADSVKGRFTISRDNAKNTLYLQMNSLKPEDTAVYYCAKGWITTDQFTNTPRGQGTQVTVSS
With B19 the A450 nm [25] was 0.805, the Kd [6] was 0.096 nM and the koff [6] was 0.000274 s⁻¹. For the same binder, the kon [6] was 2.85e+06 M⁻¹ s⁻¹, the Kd [7] was 0.092 nM and the koff [7] was 0.000279 s⁻¹. It also gave a kon [7] of 3.05e+06 M⁻¹ s⁻¹.

B20: 3G-87 (VHH)
VHH: DVQLVESGGGLVQPGGSLRLSCAASGFSFSFENYAMSWVRQAPGKGLEWVSTMSGGGGDTKYADSVKGRFTISRDNAKNMLYLQMNSLKPEDTAVYYCAKGWITTDRFTNTLRGQGTQVTVSS
B20 was tested, and the A450 nm [26] was 1.13.
